In US8440629B2, “Cyclic receptor-associated protein (RAP) peptides” (Raptor Pharmaceuticals Inc., priority 2007, dated 2013):
Residue numbers refer to the chain shown, from its start. Names may count otherwise. Blank lines part the entries; values can stand above or below the molecule they belong to.

Experiments:
[1] = tested on: CR proteins; test: Solid phase binding assay in presence of 10 mM EGTA; parameters: species or system human
Protocol: Purified, refolded CR protein (1 μg) was bound to Nunc Maxisorp™ 96-well plates in TBS pH 8 supplemented with 5 mM CaCl2 (TBSC) overnight at 4° C. Wells were washed with TBSC and then blocked with TBSC containing 2% bovine serum albumin (BSA). RAP ligands were then incubated with the immobilized receptor at a range of concentrations for 2 hours in the above blocking buffer supplemented with 0.05% Tween-20 at room temperature. Control wells contained no added ligand. As an additional control, to determine whether the absence of calcium affected binding, 10 mM EGTA was included in the incubation medium for some samples. Wells were washed with TBSTC and bound ligands detected with polyclonal anti-RAP (BP41/42, 1:1,000, BioMarin). Excess primary antibody was removed and wells washed before incubation with the secondary antibody, HRP-conjugated goat anti rabbit IgG (Bio-Rad). After washing, TMB substrate solutions (Bio-Rad) were added to detect HRP. Color development was stopped with 1N HCl. Absorption at 450 nm was measured with a microplate spectrophotometer (Molecular Devices). Data were plotted and Kd values derived by non-linear regression with the assumption of single-site binding (GraphPad Prism).
Next, the binding of RAP d3 and MegaRAP1 d3 proteins to LRP1 CR3-5 and LRP2 CR89 was assessed. […]

[2] = biological target: T1, LRP6 CR1-3 (Homo sapiens, UniProt O75581); test: Solid phase binding assay; conditions: highest ligand concentrations tested
T1 construct: made in house; host or cells: E. coli BL21(DE3) CodonPlus-RIPL, pET30(+)a
T1 sequence (O75581 1247-1363): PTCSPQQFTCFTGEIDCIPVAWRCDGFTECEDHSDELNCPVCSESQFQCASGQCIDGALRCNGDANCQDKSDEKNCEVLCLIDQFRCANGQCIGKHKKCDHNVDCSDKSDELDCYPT

[3] = biological target: T2, LRP6 CR12 (Homo sapiens, UniProt O75581); test: Solid phase binding assay; conditions: highest ligand concentrations tested
T2 construct: LRP6 CR12 and LRP6 CR23, amino acids 1247-1322 and 1323-1363; made in house; host or cells: E. coli BL21(DE3) CodonPlus-RIPL, pET30(+)a
T2 sequence (O75581 1247-1322): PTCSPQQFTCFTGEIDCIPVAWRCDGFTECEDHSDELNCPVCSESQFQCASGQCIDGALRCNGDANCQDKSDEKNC

[4] = biological target: T3, MAT CR12 (Homo sapiens, UniProt Q9Y5Y6); test: Solid phase binding assay; conditions: separate set of experiments
T3 construct: termed MAT CR12 (ST14 CR12), amino acids 452-524; made in house; host or cells: E. coli BL21(DE3) CodonPlus-RIPL, pET30(+)a
T3 sequence (Q9Y5Y6 452-524): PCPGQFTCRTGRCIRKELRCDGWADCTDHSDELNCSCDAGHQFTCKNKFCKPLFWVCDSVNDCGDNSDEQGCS

[5] = biological target: T4, VLDLR CR78 (Homo sapiens, UniProt P98155); test: Solid phase binding assay; conditions: highest ligand concentrations tested
T4 construct: a CR pair from VLDLR (CR78); made in house; host or cells: E. coli BL21(DE3) CodonPlus-RIPL, pET30(+)a

effect of 10 mM EGTA on binding to CR proteins [1]: prevented binding
binding relative to that for LRP1 CR3-5 [2]: less than 5%
binding relative to that for LRP1 CR3-5 [3]: less than 5%
binding (in words) [4]: undetectable
binding relative to that for LRP1 CR3-5 [5]: less than 5%
B1: RAP d3: third domain of human RAP, amino acids 201-319 of mature RAP, bacterially expressed with hexahistidine and S-peptide tags (SEQ ID NO: 92) (protein, listed as Homo sapiens)
chain: LDRLRRVSHQGYSTEAEFEEPRVIDLWDLEQSANLTDKELEAFREELKHFEAKIEKHNHYQKQLEIAHEKLRHAESVGDGERVSRSREKHALLEGRTKELGYTVKKHLQDLSGRISRAR
modifications: hexahistidine and S-peptide tags

effect of 10 mM EGTA on binding to CR proteins [1]: prevented binding
B2: MegaRAP1 d3: d3 of RAP variant selected on LRP2 CR89: S213T, E217K, H249Y, E251K, K256A, K270E (SEQ ID NO: 93) (protein, listed as Homo sapiens)
chain: B1 chain with E51K, K56A, K70D
